Reference: patent US6051396

Legend:
[1] = biological target: T1, trpE-RB19-22 fusion (Homo sapiens) (UniProt P06400); settings: Southwestern blot; stated as RB19-27 having 20-fold higher affinity; 50 mM NaCl, pH 7.0, room temperature
T1 sequence: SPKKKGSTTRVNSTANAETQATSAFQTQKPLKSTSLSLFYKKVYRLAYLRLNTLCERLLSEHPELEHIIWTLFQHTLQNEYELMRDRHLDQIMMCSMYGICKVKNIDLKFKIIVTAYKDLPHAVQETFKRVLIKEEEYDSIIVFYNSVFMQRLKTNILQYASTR

[2] = biological target: T2, trpE-RB23-27 fusion (Homo sapiens) (UniProt P06400); settings: Southwestern blot; stated as RB19-27 having 20-fold higher affinity; 50 mM NaCl, pH 7.0, room temperature
T2 sequence: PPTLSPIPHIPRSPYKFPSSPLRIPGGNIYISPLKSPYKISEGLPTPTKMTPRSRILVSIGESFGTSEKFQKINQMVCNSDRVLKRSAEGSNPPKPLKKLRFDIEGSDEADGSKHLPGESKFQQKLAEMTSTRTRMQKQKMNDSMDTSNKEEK

[3] = biological target: T3, trpE-RB19-27 fusion (Homo sapiens) (UniProt P06400); settings: Southwestern blot; 20-fold higher affinity than either subregion; 50 mM NaCl, pH 7.0, room temperature
T3 sequence: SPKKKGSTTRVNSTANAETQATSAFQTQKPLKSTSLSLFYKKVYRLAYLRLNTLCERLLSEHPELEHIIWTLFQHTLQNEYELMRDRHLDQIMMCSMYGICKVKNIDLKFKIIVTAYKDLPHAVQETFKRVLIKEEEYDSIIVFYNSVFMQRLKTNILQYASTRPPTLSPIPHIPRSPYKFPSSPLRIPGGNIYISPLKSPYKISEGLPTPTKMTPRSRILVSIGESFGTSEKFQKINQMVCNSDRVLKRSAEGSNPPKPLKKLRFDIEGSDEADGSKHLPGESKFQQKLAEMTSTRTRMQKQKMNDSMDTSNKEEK

For “pGEM1 plasmid DNA linearized by EcoRI, random-primed probe”, the binding signal (fraction of RB19-27) [1] was 0.05, the binding signal (fraction of RB19-27) [2] was 0.05 and the binding signal (fold vs RB19-22 or RB23-27) [3] was 20.
